This passage reports percent displacement of sENG from the sENG(D):BMP9 complex results from publication PMC12824264.

This assay addresses BMP9 growth factor domain (GFD) dimer (human) (UniProt Q9UK05). The assay is described as follows: ELISA; displacement assay: anti-human CD105 antibody coated; sENG(M):BMP9 or sENG(D):BMP9 captured 2 h at room temperature; BMPRII or ActRIIB ECD at 0x, 1x, 5x, 25x, 125x molar excess for 30 min; BMP9 left in the complex detected with biotinylated anti-BMP9.

BMP9 growth factor domain (GFD) dimer (human), sequence (Q9UK05 320-429): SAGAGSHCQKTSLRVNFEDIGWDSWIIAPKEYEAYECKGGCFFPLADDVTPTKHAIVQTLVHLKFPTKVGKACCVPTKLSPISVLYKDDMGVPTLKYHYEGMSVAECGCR

The substance “BMP receptor type II (BMPRII) extracellular domain (from UniProt Q13873 27-150) (domain or fragment)” registered a percent displacement of sENG from the sENG(D):BMP9 complex at 125-fold molar excess of over 50%.
